Experimental data published in the supplement of paper PMC12042874.
± gives the uncertainty stated by the source.

experiment: amyloid nucleation score (Sup35N fusion, yeast selection) (log enrichment); library NNK2; higher = more nucleation; inactive = no reads after selection
How it was run: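 Peptides of 20 random codons fused to Sup35N were expressed in psi-negative yeast, induced 24 hours with 100 μM copper sulfate, then grown 7 days at 30°C on medium lacking adenine and uracil. Input and output plasmid inserts were Illumina-sequenced. Nucleation score is the DiMSum log enrichment of output over input reads, centred on the mode score of non-aggregating sequences, excluding sequences with under 100 input reads. Random libraries had three technical output replicates.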

Row | Substance | amyloid nucleation score
1 | MKGACLRGYEVLSMGQSTSY | 0.404 ± 0.8
2 | NLVLRPR | inactive
3 | FESTAGTDKLRTEHLDPFAD | inactive
4 | NLRVSFGREDCL | -0.347 ± 0.55
5 | GFQFLIGLSHLNGYLITPRY | 3.42 ± 0.059
6 | GNVWILIYNV | 6.164 ± 0.057
7 | SVYMLRLNYYSFVVLRQTGA | -0.135 ± 0.79
8 | SHINFYVLEFWTFRIGDVFV | inactive
9 | TRDNST | 0.32 ± 0.53
10 | LSGLRRPNRFLYT | -0.897 ± 0.43
11 | IYNLWYGISPSVMGGLGFLR | 3.82 ± 0.062
12 | FFLAPKGKTSYGRGN | inactive
13 | SSWSSNQNSTYTLRSYTALH | 5.2 ± 0.069
14 | VRNFYLYVMWPWVQEFY | 7.457 ± 0.061
15 | HNGIMFTCYLSP | 5.944 ± 0.053
16 | FSMRCYRVVLKYVSTGW | 0.905 ± 0.35
17 | LNSGCAVVLCADSRHSNEPD | -0.062 ± 0.65
18 | SILLRKRQELSNFTMW | -0.67 ± 0.76
19 | NVLLNQNIMVLPGPLYFSIT | 6.129 ± 0.054
20 | VACETRRRA | 4.948 ± 0.04
21 | KWGRCSIGT | inactive
22 | NSFMPMTWLPFRSQTEKRGS | 3.73 ± 0.075

Row | Substance | amyloid nucleation score
23 | LGPTVYDFLHMCFYFRA | 4.74 ± 0.065
24 | VEINNNE | -0.065 ± 0.56
25 | FWEYEPLPPQQMSTFPD | -0.106 ± 0.79
26 | SLAFNPISCAANLPFFHIQF | 0.29 ± 0.77
27 | GRWVNCKTVVLFSSDRRQAR | 3.36 ± 0.14
28 | QRSAKLRALPEGIKHKKWLM | -0.108 ± 1.1
29 | NICLGMCLYHGVSDAVDQSR | 7.971 ± 0.055
30 | KNDLRSSGWTAGSGISLEEG | -0.365 ± 0.76
31 | TRFILYLGCDE | -1.25 ± 0.54
32 | IGCLVYHIITRVFVFVSPLF | inactive
33 | LVYRGLESQPAMRMWHTSST | -0.207 ± 0.63
34 | QGLFLLSCPSSN | 2.54 ± 0.11
35 | TVSLTWEKYNEQIHA | 0.399 ± 0.74
36 | GPNDWRNCFRD | 0.401 ± 0.56
37 | CTRRDFFGQTTAHVSVWCTG | 4.33 ± 0.081
38 | IETCKKAHRSKYTLFGLLLY | -0.383 ± 0.63
39 | FKVLVSLALSRECS | -0.75 ± 0.48
40 | TTDGNQAISVKLMTYLTRPL | -0.187 ± 0.41
41 | TRPCMFFRIELISLSTVLAR | 0.552 ± 0.46
42 | FVSLTLCCYGEGDVPLREVQ | 1.9 ± 0.14
43 | LCIPSVTTDS | inactive
44 | NSAVATYCVVGQVPEK | 0.883 ± 0.44

Row | Substance | amyloid nucleation score
45 | CMQLSYSYSLTFEGQCHLVG | 4.27 ± 0.088
46 | LTVVV | 0.709 ± 0.66
47 | HLHPGVYLKPFDGCGIINGI | 0.213 ± 0.8
48 | YIYYNYKGLSVVFLSNSNMW | 2.88 ± 0.12
49 | VSKKFIIVVRNREFSP | 4.43 ± 0.086
50 | GCISSVQD | inactive
51 | KARLIAITHLPRYYWSFGVL | 0.388 ± 0.62
52 | FFGLFFNFLLMLINLPKCIV | -1.78 ± 0.75
53 | ACFSSSLCFVGMERSRSHNF | 1.91 ± 0.13
54 | GRTCVRRGQAE | 0.909 ± 0.47
55 | IYFKIIQDKFQTRMCSNKSW | inactive
56 | YVTPKDDSDAVWGLTLMEMS | 0.292 ± 0.39
57 | FEYNRF | 0.691 ± 0.8
58 | TSYRVRGVGSSELCGSLKLR | 0.627 ± 0.36
59 | YRPQATGLGSRGRR | 0.81 ± 0.43
60 | CNRESEWIECVRGFLEYANG | 1.44 ± 0.11
61 | YGSFIWWLPCNGMGLKCSRS | 1.67 ± 0.12
62 | LYPYAQFCVSVRRLHRLVSR | 0.306 ± 0.28
63 | IESRVWVGWSDD | -0.044 ± 0.49
64 | SPCFWMLPVKKPPACR | 5.082 ± 0.039
65 | AYYSVSC | 3 ± 0.11
66 | SIFVTYSLRTYINYK | 5.95 ± 0.062

Row | Substance | amyloid nucleation score
67 | LMLNWCTLGLVHC | 0.004 ± 0.61
68 | IYYNGFVQCGLLIEGLITSY | 2.39 ± 0.092
69 | SIDSRYW | -0.283 ± 0.63
70 | LVGDRNDVLPVFVRSRRRVP | 0.53 ± 0.56
71 | DREVSRVGLD | 1.29 ± 0.34
72 | VGFRRVTNMDRCSFSLCCCW | 4.56 ± 0.064
73 | IRMGRANRWEVLARWTSVVA | 9.548 ± 0.079
74 | QSLHRGR | -0.311 ± 1.1
75 | TIKRLLKDFPLIFLRISGST | inactive
76 | IWTDVRLGGRDIVLDSRVYF | 2.14 ± 0.098
77 | LKPCLRFFNIIT | 3.44 ± 0.1
78 | FSCWGFMVFRMVGDMLSMKD | -1.58 ± 0.49
79 | DRPGDRSGTAWAWFRCETGG | 1.1 ± 0.31
80 | FFQGSVSLCFQASHQWSFLI | 3.06 ± 0.11
81 | RRWVG | 0.015 ± 0.45
82 | CYMTFYVMLTLDRTQSHSGH | 7.411 ± 0.051
83 | YIVPSKRIWFFGLSSNGDST | 0.102 ± 0.41
84 | RLLWLPLHSFMGMDTPSGVY | 0.448 ± 0.6
85 | NWWRD | -0.071 ± 0.43
86 | SASLSTRVNNTPLPALTRWV | 0.708 ± 0.62
